The values below come from the MegaScale stability set (Tsuboyama et al. 2023).

The chains are these.
B1: r11_951_TrROS_Hall (parent)
chain: KKKYVIKVYFEDTGKEVEIEAESKEEALEAAKRLAEELGLKIKKVEIYP

In this series the parent is B1. The series is described as follows: folding stability dG (cDNA display proteolysis); higher = more stable. The settings on record: PBS, room temperature.
Regarding KKKYVIKVYFEDTGKETEIEAESKEEALEAAKRLAEELGLKIKKVEIYP [V17T], the “folding stability dG” value stood at 4.29 kcal/mol.

Consider KKKYVIKVYFEDTGKEIEIEAESKEEALEAAKRLAEELGLKIKKVEIYP [V17I], for which the “folding stability dG” value amounted to 4.4 kcal/mol.

Regarding KKKYVIKVYFEDTGKEEEIEAESKEEALEAAKRLAEELGLKIKKVEIYP [V17E], the “folding stability dG” value worked out at 4.29 kcal/mol.

Regarding KKKYVIKVYFEDTGKELEIEAESKEEALEAAKRLAEELGLKIKKVEIYP [V17L], the “folding stability dG” value came out at 4.42 kcal/mol.

For the variant KKKYVIKVYFEDTGKESEIEAESKEEALEAAKRLAEELGLKIKKVEIYP [V17S], the “folding stability dG” value is 4.23 kcal/mol.

Consider KKKYVIKVYFEDTGKEHEIEAESKEEALEAAKRLAEELGLKIKKVEIYP [V17H], for which the “folding stability dG” value is 4.4 kcal/mol.

With KKKYVIKVYFEDTGKEGEIEAESKEEALEAAKRLAEELGLKIKKVEIYP [V17G], the “folding stability dG” value came to 4.05 kcal/mol.

Take KKKYVIKVYFEDTGKEKEIEAESKEEALEAAKRLAEELGLKIKKVEIYP [V17K]: the “folding stability dG” value came out at 4.07 kcal/mol.

As to KKKYVIKVYFEDTGKEAEIEAESKEEALEAAKRLAEELGLKIKKVEIYP [V17A], the “folding stability dG” value is 4.23 kcal/mol.

Consider KKKYVIKVYFEDTGKEDEIEAESKEEALEAAKRLAEELGLKIKKVEIYP [V17D], for which the “folding stability dG” value came out at 3.74 kcal/mol.

KKKYVIKVYFEDTGKEQEIEAESKEEALEAAKRLAEELGLKIKKVEIYP [V17Q]: the “folding stability dG” value worked out at 4 kcal/mol.

On to KKKYVIKVYFEDTGKECEIEAESKEEALEAAKRLAEELGLKIKKVEIYP [V17C], for which the “folding stability dG” value worked out at 4.25 kcal/mol.

For the variant KKKYVIKVYFEDTGKEMEIEAESKEEALEAAKRLAEELGLKIKKVEIYP [V17M], the “folding stability dG” value is 4.28 kcal/mol.

For the variant KKKYVIKVYFEDTGKEWEIEAESKEEALEAAKRLAEELGLKIKKVEIYP [V17W], the “folding stability dG” value amounted to 4.53 kcal/mol.

Turning to KKKYVIKVYFEDTGKEPEIEAESKEEALEAAKRLAEELGLKIKKVEIYP [V17P], the “folding stability dG” value stood at 3.58 kcal/mol.

Turning to KKKYVIKVYFEDTGKENEIEAESKEEALEAAKRLAEELGLKIKKVEIYP [V17N], the “folding stability dG” value is 3.71 kcal/mol.

With KKKYVIKVYFEDTGKEYEIEAESKEEALEAAKRLAEELGLKIKKVEIYP [V17Y], the “folding stability dG” value turned out to be 4.36 kcal/mol.

Consider KKKYVIKVYFEDTGKEREIEAESKEEALEAAKRLAEELGLKIKKVEIYP [V17R], for which the “folding stability dG” value came out at 4.29 kcal/mol.

For KKKYVIKVYFEDTGKEFEIEAESKEEALEAAKRLAEELGLKIKKVEIYP [V17F], the “folding stability dG” value was 4.42 kcal/mol.

Turning to KKKYVIKVYFEDTGKEVEQEAESKEEALEAAKRLAEELGLKIKKVEIYP [I19Q], the “folding stability dG” value was found to be 3.59 kcal/mol.

As for KKKYVIKVYFEDTGKEVECEAESKEEALEAAKRLAEELGLKIKKVEIYP [I19C], the “folding stability dG” value was 4.1 kcal/mol.

As for KKKYVIKVYFEDTGKEVEMEAESKEEALEAAKRLAEELGLKIKKVEIYP [I19M], the “folding stability dG” value was determined as 4.5 kcal/mol.

As for KKKYVIKVYFEDTGKEVEKEAESKEEALEAAKRLAEELGLKIKKVEIYP [I19K], the “folding stability dG” value is 3.18 kcal/mol.

As to KKKYVIKVYFEDTGKEVEREAESKEEALEAAKRLAEELGLKIKKVEIYP [I19R], the “folding stability dG” value was 3.57 kcal/mol.

On to KKKYVIKVYFEDTGKEVEYEAESKEEALEAAKRLAEELGLKIKKVEIYP [I19Y], for which the “folding stability dG” value came out at 4.49 kcal/mol.

KKKYVIKVYFEDTGKEVEGEAESKEEALEAAKRLAEELGLKIKKVEIYP [I19G]: the “folding stability dG” value was determined as 3.31 kcal/mol.

As for KKKYVIKVYFEDTGKEVEDEAESKEEALEAAKRLAEELGLKIKKVEIYP [I19D], the “folding stability dG” value was 3.07 kcal/mol.

On to KKKYVIKVYFEDTGKEVEWEAESKEEALEAAKRLAEELGLKIKKVEIYP [I19W], for which the “folding stability dG” value was 4.51 kcal/mol.

KKKYVIKVYFEDTGKEVEVEAESKEEALEAAKRLAEELGLKIKKVEIYP [I19V]: the “folding stability dG” value was determined as 4.19 kcal/mol.

Take KKKYVIKVYFEDTGKEVEPEAESKEEALEAAKRLAEELGLKIKKVEIYP [I19P]: the “folding stability dG” value worked out at 0.94 kcal/mol.

Regarding KKKYVIKVYFEDTGKEVEEEAESKEEALEAAKRLAEELGLKIKKVEIYP [I19E], the “folding stability dG” value turned out to be 3.36 kcal/mol.

Take KKKYVIKVYFEDTGKEVEFEAESKEEALEAAKRLAEELGLKIKKVEIYP [I19F]: the “folding stability dG” value turned out to be 4.33 kcal/mol.

KKKYVIKVYFEDTGKEVETEAESKEEALEAAKRLAEELGLKIKKVEIYP [I19T]: the “folding stability dG” value turned out to be 3.98 kcal/mol.

As to KKKYVIKVYFEDTGKEVELEAESKEEALEAAKRLAEELGLKIKKVEIYP [I19L], the “folding stability dG” value is 4.5 kcal/mol.

On to KKKYVIKVYFEDTGKEVENEAESKEEALEAAKRLAEELGLKIKKVEIYP [I19N], for which the “folding stability dG” value was 2.66 kcal/mol.

Consider KKKYVIKVYFEDTGKEVEHEAESKEEALEAAKRLAEELGLKIKKVEIYP [I19H], for which the “folding stability dG” value was 3.61 kcal/mol.

Consider KKKYVIKVYFEDTGKEVEAEAESKEEALEAAKRLAEELGLKIKKVEIYP [I19A], for which the “folding stability dG” value is 3.98 kcal/mol.

With KKKYVIKVYFEDTGKEVESEAESKEEALEAAKRLAEELGLKIKKVEIYP [I19S], the “folding stability dG” value came to 3.56 kcal/mol.

As for KKKYVIKVYFEDTGKEVRIEAESKEEALEAAKRLAEELGLKIKKVEIYP [E18R], the “folding stability dG” value turned out to be 4.19 kcal/mol.

KKKYVIKVYFEDTGKEVAIEAESKEEALEAAKRLAEELGLKIKKVEIYP [E18A]: the “folding stability dG” value was 4.14 kcal/mol.

Consider KKKYVIKVYFEDTGKEVVIEAESKEEALEAAKRLAEELGLKIKKVEIYP [E18V], for which the “folding stability dG” value came out at 4.35 kcal/mol.

Consider KKKYVIKVYFEDTGKEVNIEAESKEEALEAAKRLAEELGLKIKKVEIYP [E18N], for which the “folding stability dG” value was 4.16 kcal/mol.

KKKYVIKVYFEDTGKEVWIEAESKEEALEAAKRLAEELGLKIKKVEIYP [E18W]: the “folding stability dG” value is 4.3 kcal/mol.

Consider KKKYVIKVYFEDTGKEVFIEAESKEEALEAAKRLAEELGLKIKKVEIYP [E18F], for which the “folding stability dG” value was 4.21 kcal/mol.

Regarding KKKYVIKVYFEDTGKEVKIEAESKEEALEAAKRLAEELGLKIKKVEIYP [E18K], the “folding stability dG” value turned out to be 4.07 kcal/mol.

Regarding KKKYVIKVYFEDTGKEVIIEAESKEEALEAAKRLAEELGLKIKKVEIYP [E18I], the “folding stability dG” value is 4.61 kcal/mol.

With KKKYVIKVYFEDTGKEVMIEAESKEEALEAAKRLAEELGLKIKKVEIYP [E18M], the “folding stability dG” value amounted to 4.35 kcal/mol.

Regarding KKKYVIKVYFEDTGKEVTIEAESKEEALEAAKRLAEELGLKIKKVEIYP [E18T], the “folding stability dG” value worked out at 4.3 kcal/mol.

KKKYVIKVYFEDTGKEVCIEAESKEEALEAAKRLAEELGLKIKKVEIYP [E18C]: the “folding stability dG” value turned out to be 4.4 kcal/mol.

With KKKYVIKVYFEDTGKEVQIEAESKEEALEAAKRLAEELGLKIKKVEIYP [E18Q], the “folding stability dG” value came out at 4.5 kcal/mol.

As to KKKYVIKVYFEDTGKEVHIEAESKEEALEAAKRLAEELGLKIKKVEIYP [E18H], the “folding stability dG” value was 4.32 kcal/mol.

For the variant KKKYVIKVYFEDTGKEVLIEAESKEEALEAAKRLAEELGLKIKKVEIYP [E18L], the “folding stability dG” value turned out to be 4.46 kcal/mol.

Regarding KKKYVIKVYFEDTGKEVPIEAESKEEALEAAKRLAEELGLKIKKVEIYP [E18P], the “folding stability dG” value worked out at 3.84 kcal/mol.
